Assay results as given in US20040138119.

What was measured:
[1] = biological target: purified recombinant Survivin (untagged)
[2] = biological target: combination of His6-HBXIP and Survivin

Protein	Caspase-9 activity (cleavage of Ac-LEHD-AFC) and pro-Caspase-9 processing after Apaf1, Cytochrome C and dATP [1]	Caspase-9 activity (cleavage of Ac-LEHD-AFC) and pro-Caspase-9 processing after Apaf1, Cytochrome C and dATP [2]	Caspase-9 activity (cleavage of Ac-LEHD-AFC) and pro-Caspase-9 processing after Apaf1, Cytochrome C and dATP (His6-HBXIP)	Caspase-3 protease activity, hydrolysis of Ac-DEVD-AFC [1]
His6-pro-Caspase-9 (protein) HHHHHHMDEADRRLLRRCRLRLVEELQVDQLWDALLSRELFRPHMIEDIQRAGSGSRRDQARQLIIDLETRGSQALPLFISCLEDTGQDMLASFLRTNRQAAKLSKPTLENLTPVVLRPEIRKPEVLRPETPRPVDIGSGGFGDVGALESLRGNADLAYILSMEPCGHCLIINNVNFCRESGLRTRTGSNIDCEKLRRRFSSLHFMVEVKGDLTAKKMVLALLELAQQDHGALDCCVVVILSHGCQASHLQFPGAVYGTDGCPVSVEKIVNIFNGTSCPSLGGKPKLFFIQACGGEQKDHGFEVASTSPEDESPGSNPEPDATPFQEGLRTFDQLDAISSLPTPSDIFVSYSTFPGFVSWRDPKSGSWYVETLDDIFEQWAHSEDLQSLLLRVANAVSVKGIYKQMPGCFNFLRKKLFFKTS	Addition of either recombinant purified Survivin or HBXIP individually was ineffective at blocking Apaf1-mediated activation and proteolytic processing of pro-Caspase-9 in vitro.	the combination of Survivin and HBXIP effectively suppressed generation of Caspase-9 protease activity	Addition of either recombinant purified Survivin or HBXIP individually was ineffective at blocking Apaf1-mediated activation and proteolytic processing of pro-Caspase-9 in vitro.	–
recombinant active Caspase-3 (protein) SGISLDNSYKMDYPEMGLCIIINNKNFHKSTGMTSRSGTDVDAANLRETFRNLKYEVRNKNDLTREEIVELMRDVSKEDHSKRSSFVCVLLSHGEEGIIFGTNGPVDLKKITNFFRGDRCRSLTGKPKLFIIQACRGTELDCGIETDSGVDDDMACHKIPVEADFLYAYSTAPGYYSWRNSKDGSWFIQSLCAMLKQYADKLEFMHILTRVNRKVATEFESFSFDATFHAKKQIPCIVSMLTKELYFYH	–	–	–	Even at a 1000-fold molar excess of Survivin relative to active Caspase-3, essentially no inhibition was observed.
